In the supplement of paper PMC10065799, “High-throughput profiling of sequence recognition by tyrosine kinases and SH2 domains using bacterial peptide display” (eLife, 2023):

What was measured:
Grb2 SH2 = Grb2 SH2 (UniProt P62993); assay: SH2 binding enrichment of the phosphorylated peptide, bacterial display (enrichment ratio); higher = better substrate or ligand; peptides without Tyr show the background
c-Src SH2 = assay: as above
SHP2-C SH2 = assay: as above
Fer (mouse) = assay: phosphorylation enrichment, bacterial display (enrichment ratio); higher = better substrate or ligand; peptides without Tyr show the background
MERTK = MERTK (UniProt Q12866); assay: as above
EPHB1 = EPHB1 (UniProt P54762); assay: as above
c-Abl (mouse) = assay: as above
FGFR1 = FGFR1 (UniProt P11362); assay: as above
Jak2 = Jak2 (UniProt O60674); assay: as above
FGFR3 = FGFR3 (UniProt P22607); assay: as above
c-Src = assay: as above
EPHB2 = EPHB2 (UniProt P29323); assay: as above
Fes = Fes (UniProt P07332); assay: as above
Fyn = Fyn (UniProt P06241); assay: as above
Hck = Hck (UniProt P08631); assay: as above
AncSZ = assay: as above
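For SH2 binding enrichment of the phosphorylated peptide, bacterial display in this document: peptide library displayed on the E. coli surface as eCPX fusions, selected cells deep-sequenced, score is each peptide's frequency after selection divided by its frequency in the input.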
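For phosphorylation enrichment, bacterial display in this document: 11-residue human phosphosite peptides and single-mutation variants displayed on the E. coli surface, counted by deep sequencing, each peptide's frequency after selection divided by its frequency in the unselected input library; frequency after pTyr selection over input frequency; kinase dosed for 20-30% of maximal phosphorylation in three min.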

Sequence of FGFR1 (P11362 whole entry, looked up): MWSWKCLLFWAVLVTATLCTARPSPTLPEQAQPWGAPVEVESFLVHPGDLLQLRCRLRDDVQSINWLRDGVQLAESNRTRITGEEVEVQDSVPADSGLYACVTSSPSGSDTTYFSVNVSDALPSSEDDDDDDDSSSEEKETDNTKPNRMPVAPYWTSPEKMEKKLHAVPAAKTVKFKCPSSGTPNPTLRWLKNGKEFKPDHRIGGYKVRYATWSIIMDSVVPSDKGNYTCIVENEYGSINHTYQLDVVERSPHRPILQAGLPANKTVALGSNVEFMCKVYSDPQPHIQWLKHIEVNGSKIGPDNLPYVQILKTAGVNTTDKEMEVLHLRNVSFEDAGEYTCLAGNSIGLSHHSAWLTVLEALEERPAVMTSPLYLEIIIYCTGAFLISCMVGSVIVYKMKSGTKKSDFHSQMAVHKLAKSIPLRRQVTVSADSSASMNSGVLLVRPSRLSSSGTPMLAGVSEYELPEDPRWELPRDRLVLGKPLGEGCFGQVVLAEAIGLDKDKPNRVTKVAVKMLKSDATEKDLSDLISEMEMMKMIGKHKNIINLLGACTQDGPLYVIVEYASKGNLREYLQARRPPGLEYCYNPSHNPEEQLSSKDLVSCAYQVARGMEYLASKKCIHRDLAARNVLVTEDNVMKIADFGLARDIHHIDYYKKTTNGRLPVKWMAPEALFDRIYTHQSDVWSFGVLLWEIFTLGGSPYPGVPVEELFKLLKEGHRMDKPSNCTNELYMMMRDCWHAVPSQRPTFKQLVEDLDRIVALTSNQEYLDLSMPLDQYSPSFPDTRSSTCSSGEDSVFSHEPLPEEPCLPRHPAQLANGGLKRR
Sequence of Hck (P08631 whole entry, looked up): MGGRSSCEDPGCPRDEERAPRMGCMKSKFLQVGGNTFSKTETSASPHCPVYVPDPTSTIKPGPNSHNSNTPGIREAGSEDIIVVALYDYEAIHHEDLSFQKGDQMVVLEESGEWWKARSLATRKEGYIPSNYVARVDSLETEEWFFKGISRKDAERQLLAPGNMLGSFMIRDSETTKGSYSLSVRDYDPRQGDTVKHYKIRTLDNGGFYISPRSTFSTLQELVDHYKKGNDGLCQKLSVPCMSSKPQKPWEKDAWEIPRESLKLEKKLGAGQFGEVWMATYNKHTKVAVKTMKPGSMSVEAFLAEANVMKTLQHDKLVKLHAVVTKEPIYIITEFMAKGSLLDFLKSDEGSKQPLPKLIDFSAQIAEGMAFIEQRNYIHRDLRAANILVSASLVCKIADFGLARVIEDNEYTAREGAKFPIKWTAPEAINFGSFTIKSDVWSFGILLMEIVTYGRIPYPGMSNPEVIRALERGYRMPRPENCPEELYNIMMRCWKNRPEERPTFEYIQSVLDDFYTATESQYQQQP
Sequence of EPHB2 (P29323 whole entry, looked up): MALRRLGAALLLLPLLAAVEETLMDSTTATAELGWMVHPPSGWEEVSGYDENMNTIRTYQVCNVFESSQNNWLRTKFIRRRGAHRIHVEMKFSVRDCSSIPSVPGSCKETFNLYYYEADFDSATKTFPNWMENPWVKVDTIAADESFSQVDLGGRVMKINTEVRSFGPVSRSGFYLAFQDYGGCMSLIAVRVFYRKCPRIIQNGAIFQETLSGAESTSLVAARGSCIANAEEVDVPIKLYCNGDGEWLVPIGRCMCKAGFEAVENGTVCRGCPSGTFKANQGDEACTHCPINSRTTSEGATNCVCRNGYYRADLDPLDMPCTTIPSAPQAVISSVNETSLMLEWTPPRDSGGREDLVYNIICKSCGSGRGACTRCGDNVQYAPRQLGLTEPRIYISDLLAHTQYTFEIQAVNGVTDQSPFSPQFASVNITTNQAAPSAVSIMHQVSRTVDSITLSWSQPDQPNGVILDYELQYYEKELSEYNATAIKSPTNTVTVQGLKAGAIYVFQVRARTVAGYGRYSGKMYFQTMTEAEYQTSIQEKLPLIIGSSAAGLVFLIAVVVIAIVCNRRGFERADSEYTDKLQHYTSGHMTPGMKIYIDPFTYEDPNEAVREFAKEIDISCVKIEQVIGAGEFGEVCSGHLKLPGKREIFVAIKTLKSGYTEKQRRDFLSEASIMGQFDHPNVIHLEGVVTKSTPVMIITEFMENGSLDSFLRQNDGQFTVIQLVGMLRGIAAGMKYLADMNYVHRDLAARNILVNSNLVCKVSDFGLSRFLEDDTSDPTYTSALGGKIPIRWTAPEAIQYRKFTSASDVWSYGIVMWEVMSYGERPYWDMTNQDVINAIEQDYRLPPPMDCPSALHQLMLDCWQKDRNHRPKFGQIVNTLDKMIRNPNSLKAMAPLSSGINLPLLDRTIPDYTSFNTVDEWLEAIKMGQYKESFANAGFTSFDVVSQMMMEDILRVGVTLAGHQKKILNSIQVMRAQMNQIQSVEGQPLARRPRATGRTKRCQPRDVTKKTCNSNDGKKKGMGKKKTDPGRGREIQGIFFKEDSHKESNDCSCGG
Sequence of EPHB1 (P54762 whole entry, looked up): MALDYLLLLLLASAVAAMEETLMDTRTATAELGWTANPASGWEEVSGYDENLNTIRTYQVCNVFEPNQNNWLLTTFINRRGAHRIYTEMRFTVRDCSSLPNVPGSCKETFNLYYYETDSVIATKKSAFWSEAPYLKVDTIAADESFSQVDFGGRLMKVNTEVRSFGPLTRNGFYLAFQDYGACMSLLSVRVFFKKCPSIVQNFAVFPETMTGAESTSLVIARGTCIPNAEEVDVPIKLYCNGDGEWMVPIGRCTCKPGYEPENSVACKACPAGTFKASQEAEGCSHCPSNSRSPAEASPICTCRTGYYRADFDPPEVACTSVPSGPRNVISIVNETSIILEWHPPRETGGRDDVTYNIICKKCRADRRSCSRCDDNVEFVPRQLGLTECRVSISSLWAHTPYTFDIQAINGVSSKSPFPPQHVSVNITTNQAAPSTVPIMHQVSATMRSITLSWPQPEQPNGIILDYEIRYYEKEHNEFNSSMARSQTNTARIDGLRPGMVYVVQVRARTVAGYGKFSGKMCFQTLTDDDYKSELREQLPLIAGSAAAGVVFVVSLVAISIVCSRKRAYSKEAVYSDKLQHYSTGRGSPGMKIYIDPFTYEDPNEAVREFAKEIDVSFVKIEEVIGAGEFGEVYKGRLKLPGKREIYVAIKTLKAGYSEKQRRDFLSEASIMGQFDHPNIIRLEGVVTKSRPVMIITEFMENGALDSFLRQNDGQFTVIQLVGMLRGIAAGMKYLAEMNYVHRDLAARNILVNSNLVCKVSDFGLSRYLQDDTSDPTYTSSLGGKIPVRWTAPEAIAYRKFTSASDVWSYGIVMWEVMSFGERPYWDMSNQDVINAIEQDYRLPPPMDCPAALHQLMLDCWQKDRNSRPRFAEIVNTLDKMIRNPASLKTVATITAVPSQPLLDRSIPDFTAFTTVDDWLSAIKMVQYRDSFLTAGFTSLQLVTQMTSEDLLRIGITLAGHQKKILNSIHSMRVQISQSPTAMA
Sequence of Fes (P07332 whole entry, looked up): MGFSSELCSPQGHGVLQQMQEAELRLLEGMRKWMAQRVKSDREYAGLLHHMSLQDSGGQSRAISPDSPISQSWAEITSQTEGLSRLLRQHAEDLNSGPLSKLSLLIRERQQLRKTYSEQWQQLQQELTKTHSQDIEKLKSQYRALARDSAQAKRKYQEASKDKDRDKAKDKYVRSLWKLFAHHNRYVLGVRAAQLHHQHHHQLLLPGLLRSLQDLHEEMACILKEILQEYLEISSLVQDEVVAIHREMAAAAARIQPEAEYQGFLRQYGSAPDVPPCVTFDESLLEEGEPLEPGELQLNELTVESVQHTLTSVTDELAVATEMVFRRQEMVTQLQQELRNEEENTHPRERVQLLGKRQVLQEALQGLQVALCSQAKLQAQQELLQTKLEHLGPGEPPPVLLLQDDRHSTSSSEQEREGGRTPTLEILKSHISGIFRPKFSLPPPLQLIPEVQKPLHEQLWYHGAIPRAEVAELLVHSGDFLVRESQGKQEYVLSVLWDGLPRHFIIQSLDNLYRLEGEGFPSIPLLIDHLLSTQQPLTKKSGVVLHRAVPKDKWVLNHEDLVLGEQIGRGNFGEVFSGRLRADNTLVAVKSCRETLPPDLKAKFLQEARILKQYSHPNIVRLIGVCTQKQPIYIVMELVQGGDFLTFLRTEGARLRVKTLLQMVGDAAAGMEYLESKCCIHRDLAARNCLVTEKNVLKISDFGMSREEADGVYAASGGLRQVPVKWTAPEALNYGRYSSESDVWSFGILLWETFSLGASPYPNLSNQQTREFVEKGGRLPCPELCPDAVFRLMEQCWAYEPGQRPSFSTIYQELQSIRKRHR
Sequence of FGFR3 (P22607 whole entry, looked up): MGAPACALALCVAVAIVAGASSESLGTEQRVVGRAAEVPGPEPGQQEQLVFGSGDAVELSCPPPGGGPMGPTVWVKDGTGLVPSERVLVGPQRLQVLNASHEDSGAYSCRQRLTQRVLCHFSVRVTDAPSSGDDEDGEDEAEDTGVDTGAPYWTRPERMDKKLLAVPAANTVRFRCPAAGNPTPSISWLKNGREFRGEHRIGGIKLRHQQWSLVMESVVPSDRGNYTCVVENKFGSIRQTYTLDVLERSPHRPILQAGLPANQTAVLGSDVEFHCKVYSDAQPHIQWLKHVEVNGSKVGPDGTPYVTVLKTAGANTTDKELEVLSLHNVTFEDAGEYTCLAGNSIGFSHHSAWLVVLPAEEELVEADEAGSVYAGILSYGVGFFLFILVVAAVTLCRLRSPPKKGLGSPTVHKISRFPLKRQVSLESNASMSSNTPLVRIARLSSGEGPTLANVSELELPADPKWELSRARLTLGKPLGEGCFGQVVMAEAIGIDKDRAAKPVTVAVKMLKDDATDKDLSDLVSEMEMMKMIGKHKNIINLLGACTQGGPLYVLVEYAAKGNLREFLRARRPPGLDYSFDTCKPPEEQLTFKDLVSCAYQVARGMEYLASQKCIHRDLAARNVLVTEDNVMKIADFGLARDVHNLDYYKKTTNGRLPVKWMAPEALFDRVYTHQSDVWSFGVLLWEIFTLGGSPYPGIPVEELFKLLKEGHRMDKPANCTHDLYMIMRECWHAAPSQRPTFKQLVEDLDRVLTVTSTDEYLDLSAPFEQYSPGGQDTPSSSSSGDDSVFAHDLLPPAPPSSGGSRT

Sequence | SH2 binding enrichment (Grb2 SH2) | SH2 binding enrichment (c-Src SH2) | SH2 binding enrichment (SHP2-C SH2) | phosphorylation enrichment (Fer (mouse)) | phosphorylation enrichment (MERTK) | phosphorylation enrichment (EPHB1) | phosphorylation enrichment (c-Abl (mouse)) | phosphorylation enrichment (FGFR1) | phosphorylation enrichment (Jak2) | phosphorylation enrichment (FGFR3) | phosphorylation enrichment (c-Src) | phosphorylation enrichment (EPHB2) | phosphorylation enrichment (Fes) | phosphorylation enrichment (Fyn) | phosphorylation enrichment (Hck) | phosphorylation enrichment (AncSZ)
IYETDYYQKGG [INSR_Y1189_R1191Q] | 0.915 | 0.773 | 0.442 | 1.6 | 4.71 | 1.2 | 0.629 | 1.52 | 0.819 | 1.46 | 1.37 | 0.948 | 1.08 | 1.46 | 1.37 | 1.88
SAASSYSFSDL [EMD_Y59] | 0.846 | 0.544 | 0.598 | 0.478 | 0.498 | 0.508 | 0.753 | 0.434 | 0.874 | 0.666 | 0.455 | 0.47 | 0.951 | 0.477 | 0.468 | 0.839
ASNFNYFYHRE [KCNA1_Y413_V408A] | 0.695 | 0.697 | 1.02 | 0.455 | 0.398 | 0.582 | 0.476 | 1.1 | 0.732 | 0.956 | 0.497 | 0.65 | 0.964 | 0.504 | 0.428 | 0.95
DESEDCRDTVV [CNNM3_Y456_Y456C] | 0.97 | 0.672 | 0.887 | 0.515 | 0.518 | 0.788 | 0.777 | 0.589 | 1.03 | 0.723 | 0.474 | 0.597 | 1.11 | 0.528 | 0.587 | 1.22
VLRQVYVDFEG [KMT2B_Y1707_R1705Q] | 0.833 | 0.938 | 1 | 0.579 | 0.465 | 0.877 | 0.692 | 0.721 | 0.993 | 0.871 | 1.42 | 0.722 | 1.28 | 1.85 | 0.86 | 1.16
MKNQKYGRIIM [HSD17B4_Y143_K140N] | 1.49 | 1.05 | 1.64 | 0.341 | 0.301 | 0.376 | 0.54 | 0.433 | 0.587 | 0.386 | 0.301 | 0.34 | 0.646 | 0.424 | 0.439 | 0.527
TKDTFYKQPMV [GBA_Y451_F456V] | 0.781 | 0.403 | 0.689 | 0.38 | 0.407 | 0.421 | 1.03 | 0.355 | 0.729 | 0.512 | 0.395 | 0.585 | 0.914 | 0.358 | 0.348 | 0.726
RFLRGYEQDAY [HLA-A_Y137_R138E] | 1.03 | 0.981 | 0.87 | 0.289 | 0.304 | 0.358 | 0.478 | 0.6 | 0.807 | 0.57 | 0.407 | 0.448 | 0.969 | 0.525 | 0.42 | 0.71
SIIKDYFHRGT [GATM_Y203_A208T] | 0.685 | 0.469 | 0.631 | 0.465 | 0.365 | 0.42 | 0.514 | 0.476 | 0.551 | 0.542 | 0.569 | 0.604 | 0.62 | 0.433 | 0.463 | 0.656
LEQDEYALRSH [HADHB_Y244] | 0.755 | 0.504 | 0.576 | 0.669 | 0.724 | 1.01 | 1.9 | 0.891 | 2.54 | 1.08 | 0.96 | 1.69 | 1.75 | 0.793 | 1.08 | 1.98

Further lines, with some results ahead:

SH2 binding enrichment (Grb2 SH2) | SH2 binding enrichment (c-Src SH2) | SH2 binding enrichment (SHP2-C SH2) | Sequence | phosphorylation enrichment (Fer (mouse)) | phosphorylation enrichment (MERTK) | phosphorylation enrichment (EPHB1) | phosphorylation enrichment (c-Abl (mouse)) | phosphorylation enrichment (FGFR1) | phosphorylation enrichment (Jak2) | phosphorylation enrichment (FGFR3) | phosphorylation enrichment (c-Src) | phosphorylation enrichment (EPHB2) | phosphorylation enrichment (Fes) | phosphorylation enrichment (Fyn) | phosphorylation enrichment (Hck) | phosphorylation enrichment (AncSZ)
0.987 | 0.914 | 1.27 | CTTIHNNYMCN [TP53_Y234_Y234N] | 0.383 | 0.379 | 0.44 | 0.63 | 0.423 | 0.61 | 0.452 | 0.385 | 0.456 | 0.725 | 0.432 | 0.423 | 0.712
1.02 | 0.557 | 0.817 | HKDNNYVSMWF [PAPOLG_Y432] | 2.8 | 1.5 | 6.89 | 0.654 | 3.98 | 1.01 | 2.75 | 0.666 | 4.55 | 1.39 | 0.77 | 0.636 | 1.36
1.45 | 3.07 | 1.64 | CTTIHYNYMCK [TP53_Y234_N239K] | 0.5 | 0.456 | 0.54 | 0.551 | 0.547 | 0.674 | 0.61 | 0.371 | 0.562 | 0.826 | 0.482 | 0.473 | 0.736
0.833 | 0.634 | 0.799 | ADYPDCKYRPR [SOX11_Y116_Y116C] | 0.426 | 0.41 | 0.496 | 0.706 | 0.606 | 0.657 | 0.626 | 0.406 | 0.51 | 0.955 | 0.427 | 0.416 | 0.733
5.64 | 0.646 | 0.993 | DMLTLYVNTAA [SMCHD1_Y403_Q400L] | 0.535 | 0.444 | 0.758 | 0.766 | 0.569 | 1.13 | 0.855 | 0.524 | 0.775 | 1.36 | 0.457 | 0.557 | 1.4
0.992 | 0.55 | 0.563 | EDGFAYVPLKD [PRIM2_Y208] | 0.492 | 0.42 | 0.567 | 0.86 | 0.501 | 1.18 | 0.759 | 0.523 | 0.649 | 1.27 | 0.479 | 0.519 | 1.25
